Experimental data as given in patent US20030224997A1.
Positions of bridges follow the written chain, without caps; N, C: chain ends. No end group written: not given here. *: point of attachment. Biotin = O=C1N[C@H]2[C@H](CS[C@H]2CCCCC(=O)*)N1

B1: biotinylated L1AD3 (btn-…), cyclized (peptide)
peptide: Biotin-LKCNKLVPLFYKTC
modifications: disulfide 3-14
B2: L1AD3 peptide (…), cyclized (peptide)
peptide: LKCNKLVPLFYKTC
modifications: disulfide 3-14

Experiments:
[1] = molecular target: protein on the CEM cell surface that binds L1AD3 (L1AD3 protein receptor, 27-35 kDa) (human)
[2] = molecular target: protein on the CEM cell surface that binds L1AD3 (L1AD3 protein receptor, 27-35 kDa) (human); assay: fluorescence spectroscopy, CEM cells in suspension, avidin-FITC
[3] = molecular target: protein on the CEM cell surface that binds L1AD3 (L1AD3 protein receptor, 27-35 kDa) (human); remark: listed apart in the source

Row | Binder | Kd [1] [µM] | fluorescence increase over cells not incubated with biotinylated peptide [2] [%] | percent reduction of binding of biotinylated peptide [1] [%] | percent inhibition of binding of biotinylated L1AD3 [3] [%]
1 | B1 | 6 | 48 |  | 
2 | B2 |  |  | 47 | 50
